Data reported in US20190211092A1 (NATIONAL UNIVERSITY CORPORATION TOKYO MEDICAL AND DENTAL …, published 2019).

Molecular target: T1, GST-fusion HMGB1 protein (Wister rat HMGB1, full length, expressed from pGEX-3X) (rat (Wister), UniProt P63159 2-215)
T1 construct: mature; GST served as the negative control protein in screening; also called HMGB1 solid-phase plate; not shown: glutathione S-transferase (GST) tag of the pGEX-3X vector
T1 sequence (looked up): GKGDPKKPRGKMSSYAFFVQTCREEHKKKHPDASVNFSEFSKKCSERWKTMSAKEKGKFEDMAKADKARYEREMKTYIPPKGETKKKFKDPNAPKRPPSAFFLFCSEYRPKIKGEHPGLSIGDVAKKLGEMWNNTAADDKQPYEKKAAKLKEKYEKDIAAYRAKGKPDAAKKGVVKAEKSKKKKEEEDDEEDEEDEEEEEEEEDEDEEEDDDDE
Assay: ELISA on GST-fusion HMGB1 and SPR (FIGS. 1A and 1B)
Protocol: Then, to select anti-HMGB1 monoclonal antibodies, the ELISA method was carried out as described below. First, part of the culture solution after 2 weeks was sampled and added in […] to a microplate in which 250 ng/well of the HMGB1 protein or the negative control protein (GST) was immobilized. Subsequently, reaction was carried out at room temperature for 1 hour, followed by washing with PBS three times. A secondary antibody (HRP-labeled anti-mouse IgG, manufactured by MEDICAL & BIOLOGICAL LABORATORIES CO., LTD., code number 330) was diluted in accordance with the package insert and added in 50 μL/well, which was reacted for one hour at room temperature, followed by washing with PBS three times after the reaction. Thereafter, a TMB reagent (MOSS, Inc., Chicago, Ill., USA, USA) was added in 50 μL/well, followed by enzyme chromogenic reaction for 15 minutes. Subsequently, after the enzyme reaction was stopped with 1.5 N phosphoric acid, the absorbance was measured with a plate reader with 450 nm (reference 630 nm) to select clones that reacts specifically with the HMGB1 solid-phase plate, establishing anti-HMGB1 monoclonal antibodies.

B1: anti-HMGB1 monoclonal antibody (2C8C) (antibody, V domains shown)
VH: QVQLQQSGPELVKPGASVKLSCKASGYTFTDYTIHWVKQSPGQGLEWIGWIYPGSGNTKYNDKFKGKATMTADKSSSTAYMQLSSLTSEDSAVYFCARGFAYWGQGTLVTVSA
VL: DIVLTQSPATLSVTPGDSVSLSCRASQSISNNLHWYQQKSHESPRLLIKYASQSISGIPSRFSGSGSGTDFTLSINSVETEDFGMYFCQQTNSWPLTFGAGTKLELK
notes: also called 2C8C antibody; clone 2C8C
- binding result: binds
